From article PMC4908412, “β-arrestin-1 contributes to brown fat function and directly interacts with PPARα and PPARγ” (Scientific Reports, 2016) come the findings set out here.

Where a chain is given by its changes, count along the chain named. Names and notes keep the numbering of the source.

To fix the notation:
B1: PPARα-LBD D371A (domain or fragment, human, UniProt Q07869 196-468, looked up)
chain: EDSETADLKSLAKRIYEAYLKNFNMNKVKARVILSGKASNNPPFVIHDMETLCMAEKTLVAKLVANGIQNKEAEVRIFHCCQCTSVETVTELTEFAKAIPGFANLDLNDQVTLLKYGVYEAIFAMLSSVMNKDGMLVAYGNGFITREFLKSLRKPFCDIMEPKFDFAMKFNALELADSDISLFVAAIICCGDRPGLLNVGHIEKMQEGIVHVLRLHLQSNHPDDIFLFPKLLQKMADLRQLVTEHAQLVQIIKKTESDAALHPLLQEIYRDMY
notes: also called PPARα M2; source: E. coli BL21 (DE3)-CodonPlus, purified
B2: PPARγ-ligand binding domain (amino acids 204–477) (domain or fragment, human, UniProt P37231-2 204-477, looked up)
chain: LNPESADLRALAKHLYDSYIKSFPLTKAKARAILTGKTTDKSPFVIYDMNSLMMGEDKIKFKHITPLQEQSKEVAIRIFQGCQFRSVEAVQEITEYAKSIPGFVNLDLNDQVTLLKYGVHEIIYTMLASLMNKDGVLISEGQGFMTREFLKSLRKPFGDFMEPKFEFAVKFNALELDDSDLAIFIAVIILSGDRPGLLNVKPIEDIQDNLLQALELQLKLNHPESSQLFAKLLQKMTDLRQIVTEHVQLLQVIKKTETDMSLHPLLQEIYKDLY
modifications: biotinylated for biolayer interferometry; 15N-labeled for NMR
notes: The His tag is used for capture in the pulldown; also called PPARγ-LBD; wild-type PPARγ; source: E. coli BL21 (DE3)-CodonPlus, purified; not shown: His6, N-terminal, kept
B3: PPARα-ligand binding domain (amino acids 196–468) (domain or fragment, human, UniProt Q07869 196-468, looked up)
chain: B1 chain with A176D
modifications: biotinylated for biolayer interferometry; 15N-labeled for NMR
notes: The His tag is used for capture in the pulldown; also called PPARα-LBD; wild-type PPARα; source: E. coli BL21 (DE3)-CodonPlus, purified; not shown: His6, N-terminal, kept
B4: PPARγ-LBD D380A (domain or fragment, human, UniProt P37231-2 204-477, looked up)
chain: B2 chain with D177A
notes: also called PPARγ M2; source: E. coli BL21 (DE3)-CodonPlus, purified
B5: PPARγ-LBD L311G/N312G (domain or fragment, human, UniProt P37231-2 204-477, looked up)
chain: B2 chain with L108G, N109G
notes: also called PPARγ M1; source: E. coli BL21 (DE3)-CodonPlus, purified
B6: 9-cis-retinoic acid receptor α-ligand binding domain (amino acids 196–435) (domain or fragment, human, UniProt P19793 223-462, looked up)
chain: TSSANEDMPVERILEAELAVEPKTETYVEANMGLNPSSPNDPVTNICQAADKQLFTLVEWAKRIPHFSELPLDDQVILLRAGWNELLIASFSHRSIAVKDGILLATGLHVHRNSAHSAGVGAIFDRVLTELVSKMRDMQMDKTELGCLRAIVLFNPDSKGLSNPAEVEALREKVYASLEAYCKHKYPEQPGRFAKLLLRLPALRSIGLKCLEHLFFFKLIGDTPIDTFLMEMLEAPHQMT
notes: also called RXRα-LBD; source: E. coli BL21 (DE3)-CodonPlus, purified

What all share (details): both partners purified
The target of test [1] is B3. Briefly: BLI; Octet Red 96; 50 μg/ml biotinylated PPARα-LBD or PPARγ-LBD (or their mutants) immobilised on streptavidin biosensors; analyte β-arrestin-1, βarr1M or peptides in solution (single 2 μM or serial dilutions, β-arrestin-1 0.5–32 μM); 25 °C; 2:1 heterogeneous ligand model and steady-state analysis.
The target in test [2] is B2. Described as above.
Test [3] concerns the target B3. The description is as above. The source holds these as a separate data set.
Test [4] has as its target B2. Described as above. This is another data set of the same source.
Test [5] addresses T1, β-arrestin-1 (recombinant rattus β-arrestin-1) (rat, UniProt P29066 1-418).
T1 construct: β-arrestin-1, rat (rattus), recombinant; also called βarr1; wild-type β-arrestin-1
Described as above.

For test [6], the target named is T1, β-arrestin-1 (recombinant rattus …). Described as above. The source holds these as a separate data set.
Test [7] concerns the target T2, β-arrestin-1 double mutant with L100A and L104A (rat, UniProt P29066 1-418, L100A | L104A).
T2 construct: β-arrestin-1 with L100A and L104A; also called βarr1M; source: purified
The test is described as above.

Test [8] deals with B2. Briefly: BLI; competition: PPARα/γ-LBD and β-arrestin-1 with or without increasing amounts of RXRα-LBD (Supplementary Fig. 5b,c).
Test [9] concerns the target B3. The description is as above.
Test [10] addresses B2. In words: BLI; RXRα-LBD with PPARα/γ-LBD; the tables and the methods name PPAR-LBD as ligand and RXRα-LBD as analyte, the legend of Fig. 2e,f says 50 μg/ml RXRα-LBD loaded on SAs with serial dilutions of PPARα/γ-LBD; 25 °C; 2:1 heterogeneous ligand model and steady-state analysis. On the technique in general: In BLI a coated tip is dipped into the sample, and binding shifts an interference pattern.

Test [11] has as its target B3. The description is as above.

T1 sequence (P29066 whole entry): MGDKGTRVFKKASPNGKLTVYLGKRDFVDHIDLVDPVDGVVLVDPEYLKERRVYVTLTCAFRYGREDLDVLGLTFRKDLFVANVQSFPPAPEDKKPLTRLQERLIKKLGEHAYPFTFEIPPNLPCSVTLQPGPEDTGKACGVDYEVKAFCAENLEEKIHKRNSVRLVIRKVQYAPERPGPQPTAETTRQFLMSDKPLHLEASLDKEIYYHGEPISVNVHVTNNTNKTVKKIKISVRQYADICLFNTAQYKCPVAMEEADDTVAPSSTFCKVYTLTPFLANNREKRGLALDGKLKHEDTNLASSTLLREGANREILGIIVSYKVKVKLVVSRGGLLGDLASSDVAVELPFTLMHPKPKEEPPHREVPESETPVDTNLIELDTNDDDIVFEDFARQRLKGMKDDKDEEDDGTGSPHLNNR
T2 sequence (P29066 whole entry L100A/L104A): as the sequence (P29066 whole entry) above, with L100A, L104A counted along it

In general, Kd refers to a measure of binding affinity in units of concentration. As to PAPEDKKPLTRLQERLIKKLG [synthetic β-arrestin-1 peptide harboring the LQERLIKKL sequence], in [1], the “KD1 (2:1 HL model)” value worked out at 42 µM, the “KD2 (2:1 HL model)” value was 60.3 µM, binding was put at a Kd of 56000 nM and the “koff1 (2:1 HL model)” value was found to be 0.000907 S^−1. Further, in [1], the “koff2 (2:1 HL model)” value is 0.161 S^−1, the “kon1 (2:1 HL model)” value came to 21.6 M^−1S^−1 and the “kon2 (2:1 HL model)” value came out at 2660 M^−1S^−1. Moreover, the maximum response in test [2] turned out to be 0.22 nm. Besides, in [3], the maximum response worked out at 0.27 nm. In addition, in [4], the “KD1 (2:1 HL model)” value was determined as 557 µM, the “KD2 (2:1 HL model)” value was determined as 521 µM, binding was put at a Kd of 560000 nM and the “koff1 (2:1 HL model)” value worked out at 0.00323 S^−1. Also, in test [4], the “koff2 (2:1 HL model)” value was found to be 0.132 S^−1, the “kon1 (2:1 HL model)” value was 5.8 M^−1S^−1 and the “kon2 (2:1 HL model)” value is 2.53 M^−1S^−1.
Consider B1, for which, in test [5], the Kd is 4100 nM.
Regarding B2, in test [6], the Kd came out at 1400 nM.
As for B3, the dissociation constant Kd in test [7] amounted to 3900 nM; in test [5], 3600 nM.
In the case of B4, in test [6], the Kd turned out to be 1500 nM.
Still for that read-out and setting: for B5 the value was 1900 nM.
What is called IC50 is the concentration at which inhibition is half-maximal. Low values mean greater potency in that assay, high ones weaker potency in that assay. On to B6, for which the results for the half-maximal inhibitory concentration (IC50) in test [8] and in test [9] were 850 nM and 880 nM, respectively. In addition, the results for the Kd in [10] and in test [11] were 71 nM and 29 nM, respectively.
